Test results: patent US20200255516A1 (JIANGSU HENGRUI MEDICINE, published 2020)

T1: human TIGIT on SEB-activated human PBMC (human, UniProt Q495A1)
T1 construct: native, on the cell surface
T1 sequence (receptor chain, looked up): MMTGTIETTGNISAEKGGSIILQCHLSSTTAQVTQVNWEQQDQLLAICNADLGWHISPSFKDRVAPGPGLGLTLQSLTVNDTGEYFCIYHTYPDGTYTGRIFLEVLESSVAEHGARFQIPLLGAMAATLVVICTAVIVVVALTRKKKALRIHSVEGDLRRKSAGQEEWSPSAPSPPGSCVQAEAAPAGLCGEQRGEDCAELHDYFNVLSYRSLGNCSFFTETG

T2: Full-length human TIGIT on CHO cells overexpressing TIGIT (human, UniProt Q495A1 22-244)
T2 construct: also called TIGIT-CHO cells; CHO cells overexpressing human TIGIT
T2 sequence: T1 sequence (receptor chain, looked up)

T3: TIGIT fusion protein with Fc or mFc tag (human, UniProt Q495A1 22-141)
T3 construct: extracellular domain; also called TIGIT-Fc; TIGIT-mFc
T3 sequence (looked up): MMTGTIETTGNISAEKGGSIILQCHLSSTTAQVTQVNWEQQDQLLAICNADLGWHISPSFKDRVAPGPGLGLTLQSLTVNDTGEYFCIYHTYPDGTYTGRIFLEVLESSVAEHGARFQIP

T4: human TIGIT (Sinobiological Co., Ltd., Cat. 10917-H08-H) (human, UniProt Q495A1 22-141)
T4 construct: also called huTIGIT; TIGIT-His
T4 sequence (looked up): T3 sequence (looked up)

B1: h1709-10 (antibody, human IgG4 S228P, kappa, V domains shown)
VH: EVQLVQSGAEVKKPGASVKVSCKASGYTFTDYYMHWVRQAPGQGLEWMGLVYPYNDNTGYNRKFKGRVTMTVDTSTSTVYMELNSLRSEDTAVYYCARGGPSNWNYFDYWGQGTLVTVSS
VL: DIQMTQSPSSLSASVGDRVTITCKASQNVVTAVAWYQQKPGKSPKLLIYSASNRYTGVPDRFSGSGSGTDFTLTISSLQPEDFATYFCQQYTLYPLTFGGGTKVEIKR
notes: also called humanized TIGIT antibody h1709-10
B2: h1711-04 (antibody, human IgG4 S228P, kappa, V domains shown)
VH: EVQLVQSGAEVKKPGSSVKVSCKASGYTFSNYWIGWVRQAPGQGLEWIGDIYPGGAYTNYNEKFKDRVTITADKSTSTAYMEFSSLRSEDTAVYYCTRGDYYDSSGRAMDYWGQGTLVTVSS
VL: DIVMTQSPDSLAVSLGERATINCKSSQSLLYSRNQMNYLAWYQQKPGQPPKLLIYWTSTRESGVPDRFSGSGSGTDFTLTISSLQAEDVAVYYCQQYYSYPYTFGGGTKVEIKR
notes: also called humanized TIGIT antibody h1711-04
B3: h1710-01 (antibody, human IgG4 S228P, kappa, V domains shown)
VH: EVQLVQSGAEVKKPGASVKVSCKASGYTFTNYYMHWVRQAPGQGLEWMGRIDPTSGATKYNDNFKGRVTMTRDTSTSTVYMELSSLRSEDTAVYYCAREGGFGYYFDYWGQGTTVTVSS
VL: DIQMTQSPSSLSASVGDRVTITCRTSENIFTYLAWYQQKPGKAPKLLIYNAKTFAEGVPSRFSGSGSGTDFTLTISSLQPEDFATYYCQHHYGIPLPFGQGTKLEIKR
notes: also called humanized TIGIT antibody h1710-01

How the values were obtained:
[1] = target: T1, human TIGIT on SEB-activated human PBMC; test: flow cytometry on SEB-activated human PBMC, PE anti-human IgG, MFI
[2] = target: T5, cynoTIGIT-mFc (fusion protein of cynoTIGIT extracellular domain and mouse IgG2a Fc fragment) (cynomolgus); test: SPR (Biacore T200), antibody held by Fc affinity capture, cynoTIGIT-mFc in mobile phase, 1:1 Langmuir fit
T5 construct: also called monkey TIGIT; cynomolgus TIGIT-mFc fusion protein

[3] = target: T2, Full-length human TIGIT on CHO cells …; test: cell ELISA on fixed CHO cells overexpressing human TIGIT
[4] = target: T3, TIGIT fusion protein with Fc or mFc tag; test: HTRF blocking assay: TIGIT-Fc or TIGIT-mFc with biotinylated CD155 as the blocked ligand, ratio 665/620
[5] = target: T3, TIGIT fusion protein with Fc or mFc tag; test: FACS blocking assay: TIGIT-mFc pre-incubated with the antibody, added to CHO cells overexpressing CD112 (blocked ligand), PE anti-mouse IgG, MFI
[6] = target: T2, Full-length human TIGIT on CHO cells …; test: FACS blocking assay on TIGIT-CHO cells; competitor CF633-labeled CD155-Fc at 2 ug/ml
[7] = target: T4, human TIGIT (Sinobiological Co., Ltd., …); test: SPR (Biacore T200), antibody captured via Protein A, huTIGIT in mobile phase, 1:1 Langmuir fit
[8] = target: T5, cynoTIGIT-mFc (fusion protein of …); test: ELISA: cynomolgus TIGIT-Fc or TIGIT-mFc captured by coated anti-Fc antibody, HRP secondary antibody, OD450
[9] = target: T3, TIGIT fusion protein with Fc or mFc tag; test: ELISA: human TIGIT-Fc or TIGIT-mFc captured by coated anti-Fc antibody, HRP secondary antibody, OD450
[10] = target: T3, TIGIT fusion protein with Fc or mFc tag; test: blocking cell ELISA: TIGIT-hFc or TIGIT-mFc (0.2 ug/ml) pre-mixed with the antibody, added to fixed CHO cells overexpressing CD155 (blocked ligand), OD450
[11] = target: T4, human TIGIT (Sinobiological Co., Ltd., …); test: SPR (Biacore), captured antibody, TIGIT-His as analyte

T5 sequence (chain, as listed by the source limits assumed): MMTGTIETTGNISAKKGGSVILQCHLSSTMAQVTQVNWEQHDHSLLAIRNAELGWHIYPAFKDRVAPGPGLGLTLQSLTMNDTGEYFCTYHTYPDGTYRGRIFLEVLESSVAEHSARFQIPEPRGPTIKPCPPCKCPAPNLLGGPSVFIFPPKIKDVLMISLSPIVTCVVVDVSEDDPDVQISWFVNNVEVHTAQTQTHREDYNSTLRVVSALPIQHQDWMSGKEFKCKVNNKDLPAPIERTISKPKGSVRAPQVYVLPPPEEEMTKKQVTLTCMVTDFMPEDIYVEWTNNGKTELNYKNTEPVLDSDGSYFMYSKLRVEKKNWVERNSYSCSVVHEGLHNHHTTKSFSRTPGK

Row | Binder | EC50 (read off the curve) [1] [nM] | Kd [2] [nM] | koff [2] [s⁻¹] | kon [2] [M⁻¹ s⁻¹] | EC50 [3] [nM] | IC50 (read off the curve) [4] [nM] | IC50 (read off the curve) [5] [nM] | IC50 [6] [nM] | Kd [7] [nM] | koff [7] [s⁻¹] | kon [7] [M⁻¹ s⁻¹] | EC50 (read off the curve) [8] [nM] | EC50 (read off the curve) [9] [nM] | IC50 (read off the curve) [10] [nM] | Kd [11] [nM] | koff [11] [s⁻¹] | kon [11] [M⁻¹ s⁻¹]
1 | B1 | ~0.3 | 0.3 | 0.000415 | 1.39e+06 | 0.0568 | ~3 | ~5 | 0.427 | 0.104 | 0.000259 | 2.49e+06 | ~0.1 | ~0.1 | ~1 |  |  | 
2 | B2 | ~0.3 | 0.129 | 0.000317 | 2.46e+06 | 0.0587 | ~3 | ~5 | 0.57 | 0.238 | 0.000436 | 1.83e+06 | ~0.1 | ~0.1 | ~1 | 0.21 | 0.000442 | 2.1e+06
3 | B3 | ~0.3 | 0.322 | 0.000371 | 1.15e+06 | 0.0769 | ~2 | ~5 | 0.468 | 0.147 | 0.00024 | 1.63e+06 | ~0.1 | ~0.1 | ~1 |  |  | 
